Consider seven molecules from patent US20260209344A1 (NONA BIOSCIENCES SUZHOU, published 2026).

For test [1], the target named is T1, human CLDN18.1 (claudin 18.1) (human, UniProt P56856 1-261).
T1 construct: whole, on cells; HEK293 hCLDN18.1); also called hCLDN18.1; CLDN18A1
Kind of test: FACS on HEK293 hCLDN18.1 cells.
Description: (§1) The cell density was adjusted to 10⁶ cells/ml, and 50 μl of cell suspension was added to each well of a 96-well plate. Antibodies were diluted to different concentrations with FACS buffer and 50 μl of antibody dilution was added to each well of the 96-well plate. After incubation at 4° C. for 2 hours, the plate was washed 2 times with FACS buffer. […] After incubation at 4° C. for 1 hour, the plate was washed 2 times with FACS buffer. The cells were resuspended with fixative for monitoring the fluorescence of the cells using a FACS machine (ACEA NovoCyte).

The target of test [2] is T2, human CLDN18.2 (claudin 18.2) (human).
T2 construct: HEK293 hCLDN18.2) or endogenously on NUGC4_D8 cells; also called hCLDN18.2; CLD18A2
Description: FACS on NUGC4_D8 cells.
Description: as §1

Test [3] deals with T2, human CLDN18.2 (claudin 18.2). Description: FACS on NUGC4_D8 cells endogenously expressing CLDN18.2.
Description: as §1
For test [4] the target is unchanged. Description: cell-based or functional assay.
For test [5] the target is unchanged. Kind of test: cell-based or functional assay. The source holds these as a separate data set.
Test [6] has the same target. Kind of test: cell-based or functional assay. This is another data set of the same source.
The target is the same in test [7]. Description: FACS on HEK293 hCLDN18.2 cells, APC anti-human IgG secondary.
Description: as §1
Test [8] shares this target. Kind of test: FACS on NUGC4_D8 cells endogenously expressing CLDN18.2. This is another data set of the same source.
Description: as §1

Changes are numbered by the printed parent chain.

As usually defined, the EC50 is the midpoint of the concentration-response curve.

T1 sequence (P56856 whole entry): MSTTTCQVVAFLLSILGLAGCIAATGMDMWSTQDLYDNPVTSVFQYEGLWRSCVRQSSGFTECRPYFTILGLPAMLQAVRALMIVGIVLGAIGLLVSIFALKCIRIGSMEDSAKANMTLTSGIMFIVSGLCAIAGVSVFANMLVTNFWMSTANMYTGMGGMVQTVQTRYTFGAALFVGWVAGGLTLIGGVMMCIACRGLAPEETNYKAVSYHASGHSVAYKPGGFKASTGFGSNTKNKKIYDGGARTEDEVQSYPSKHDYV

B1: PR003292 (antibody, human IgG1, kappa)
heavy: EVQLLESGGGLVQPGGSLRLSCAASGFTFSSFVMSWVRQAPGKGLEWVSTISGSGRSTYYADSVKGRFTISRDNSKNTLHLQMNSLRAEDTAVYYCAKDAAAAGTKFDYWGQGTLVTVSSASTKGPSVFPLAPSSKSTSGGTAALGCLVKDYFPEPVTVSWNSGALTSGVHTFPAVLQSSGLYSLSSVVTVPSSSLGTQTYICNVNHKPSNTKVDKKVEPKSCDKTHTCPPCPAPELLGGPSVFLFPPKPKDTLYITREPEVTCVVVDVSHEDPEVKFNWYVDGVEVHNAKTKPREEQYNSTYRVVSVLTVLHQDWLNGKEYKCKVSNKALPAPIEKTISKAKGQPREPQVYTLPPSREEMTKNQVSLTCLVKGFYPSDIAVEWESNGQPENNYKTTPPVLDSDGSFFLYSKLTVDKSRWQQGNVFSCSVMHEALHNHYTQKSLSLSPGK
light: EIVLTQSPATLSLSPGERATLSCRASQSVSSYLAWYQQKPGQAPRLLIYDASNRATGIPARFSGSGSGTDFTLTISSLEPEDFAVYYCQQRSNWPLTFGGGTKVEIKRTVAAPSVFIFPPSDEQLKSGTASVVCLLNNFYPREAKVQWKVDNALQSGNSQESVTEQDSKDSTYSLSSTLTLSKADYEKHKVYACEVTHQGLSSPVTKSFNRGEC
Consider B1, for which, in test [1], the binding result is on record as “binds”.

B2: PR003293 (antibody, human IgG1, kappa)
heavy: B1 heavy with S242D, I335E
light: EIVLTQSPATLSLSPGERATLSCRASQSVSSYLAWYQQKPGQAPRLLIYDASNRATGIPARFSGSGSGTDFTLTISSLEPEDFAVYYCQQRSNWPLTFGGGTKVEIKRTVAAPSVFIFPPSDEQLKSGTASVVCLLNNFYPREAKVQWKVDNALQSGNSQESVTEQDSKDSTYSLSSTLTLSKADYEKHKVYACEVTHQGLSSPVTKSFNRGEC
Turning to B2, in test [1], the binding result is recorded as “binds”.

B3: PR003340 (antibody, human IgG1, kappa)
heavy: EVQLLESGGGLVQPGGSLRLSCAASGFTFSSFVMSWVRQAPGKGLEWVSTISGSGRSTYYADSVKGRFTISRDNSKNTLHLQMNSLRAEDTAVYYCAKDAAAAGTKFDYWGQGTLVTVSSASTKGPSVFPLAPSSKSTSGGTAALGCLVKDYFPEPVTVSWNSGALTSGVHTFPAVLQSSGLYSLSSVVTVPSSSLGTQTYICNVNHKPSNTKVDKKVEPKSCDKTHTCPPCPAPELLGGPDVFLFPPKPKDTLMISRTPEVTCVVVDVSHEDPEVQFNWYVDGVEVHNAKTKPREEQFNSTFRVVSVLTVVHQDWLNGKEYKCKVSNKALPAPEEKTISKTKGQPREPQVYTLPPSREEMTKNQVSLTCLVKGFYPSDIAVEWESNGQPENNYKTTPPMLDSDGSFFLYSKLTVDKSRWQQGNVFSCSVMHEALHNHYTQKSLSLSPGK
light: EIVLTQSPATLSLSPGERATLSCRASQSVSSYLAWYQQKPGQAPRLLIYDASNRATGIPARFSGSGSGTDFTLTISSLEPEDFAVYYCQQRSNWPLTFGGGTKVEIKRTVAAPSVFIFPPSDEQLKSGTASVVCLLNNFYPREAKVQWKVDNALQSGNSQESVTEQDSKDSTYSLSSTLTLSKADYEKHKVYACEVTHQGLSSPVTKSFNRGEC
B3: the binding result in test [1] is listed as “binds”.

B4: PR003897 (antibody, human IgG1, kappa)
heavy: QVQLVESGGGLVQPGGSLRLSCATSGFTFSSYAMSWVRQAPGKGLEWVSLISGSGGSPYYADSVKGRFTISRDNSKNTLYLQMNSLRAEDTAVYYCAKGVVNWGSLFDYWGQGTLVTVSSASTKGPSVFPLAPSSKSTSGGTAALGCLVKDYFPEPVTVSWNSGALTSGVHTFPAVLQSSGLYSLSSVVTVPSSSLGTQTYICNVNHKPSNTKVDKKVEPKSCDKTHTCPPCPAPELLGGPDVFLFPPKPKDTLMISRTPEVTCVVVDVSHEDPEVQFNWYVDGVEVHNAKTKPREEQFNSTFRVVSVLTVVHQDWLNGKEYKCKVSNKALPAPEEKTISKTKGQPREPQVYTLPPSREEMTKNQVSLTCLVKGFYPSDIAVEWESNGQPENNYKTTPPMLDSDGSFFLYSKLTVDKSRWQQGNVFSCSVMHEALHNHYTQKSLSLSPGK
light: not shown
Regarding B4, the binding result in test [2] and in test [1] was “binds” each time.

B5: PR002725 (antibody, human IgG1, kappa, V domains shown)
VH: EVQLLESGGGLVQPGGSLRLSCAASGFTFSGYVMSWVRQAPGKGLEWVSAISGSGGSKYYADSVKGRFTISRDNSKNTLYLQMNSLRAEDTAVYYCAKGDIAVLLFDYWGQGTLVTVSS
VL: EMVMTQSPATLSVSPGERATLSCRASQSVSRNLAWFQQKPGQAPRLLIYGASTRATGIPARFSGSGSGTEFTLTISSLQSEDFAVYYCQQYNNWPLTFGGGTKVEIKR
notes: Human IgG1/kappa; also called clone 11C12-13C2
As to B5, the binding result in test [1] is reported as “binds”.

B6: PR002727 (antibody, human IgG1, kappa, V domains shown)
VH: EVQLVESGGGVVQPGRSLRLSCAASGFTFSSYGMHWVRQAPGKGLEWVAVIWYDGSNKYYADSVKGRFTISRDNSKNTLYLQMNSLRAEDTAVYYCAKDGYYGSGTYYYYVMNAWGQGASVTVSS
VL: B5 VL with M2I, A19V, R31S, F36Y, N93Y
notes: Human IgG1/kappa; also called clone 31H3E2
On to B6, for which the binding result in test [3] is “binds”.

B7: IMAB362 analogue (antibody, human IgG1, kappa, V domains shown)
VH: QVQLQQPGAELVRPGASVKLSCKASGYTFTSYWINWVKQRPGQGLEWIGNIYPSDSYTNYNQKFKDKATLTVDKSSSTAYMQLSSPTSEDSAVYYCTRSWRGNSFDYWGQGTTLTVSS
VL: DIVMTQSPSSLTVTAGEKVTMSCKSSQSLLNSGNQKNYLTWYQQKPGQPPKLLIYWASTRESGVPDRFTGSGSGTDFTLTISSVQAEDLAVYYCQNDYSYPFTFGSGTKLEIKR
notes: Home-made positive control; variable region identical to IMAB362, a few amino acids differ in the constant region; also called PR000400
Regarding B7, in test [4], the “EC50 (nM), ADCC with human PBMC on NUGC4_D8 cells” value was 0.91 nM. In addition, the “EC50 (nM), CDC on HEK293 hCLDN18.2 cells” value in test [5] was 1.07 nM. Besides, the “EC50 (nM), endocytosis in NUGC4_D8 cells (FACS)” value in test [6] was 0.4 nM. For the same molecule, the EC50 in test [7] is 4 nM; in test [8], 20.7 nM.
